Assay results published in paper PMC3060506 (The Journal of Biological Chemistry, 2010).
Ends that are not written are not given here.

Target: T1, RNASEH2BC heterodimer, purified (human, UniProt Q5TBB1 1-312; Q8TDP1 1-164)
T1 sequence (looked up) 1: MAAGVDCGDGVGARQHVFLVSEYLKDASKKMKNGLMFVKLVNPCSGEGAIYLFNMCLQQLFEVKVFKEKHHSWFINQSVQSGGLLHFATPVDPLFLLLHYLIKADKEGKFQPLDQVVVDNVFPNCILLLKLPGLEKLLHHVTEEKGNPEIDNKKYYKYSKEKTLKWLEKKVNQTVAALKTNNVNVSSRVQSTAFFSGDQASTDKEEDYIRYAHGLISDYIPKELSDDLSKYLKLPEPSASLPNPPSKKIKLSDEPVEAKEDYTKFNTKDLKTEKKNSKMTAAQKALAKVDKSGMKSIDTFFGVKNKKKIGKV
T1 sequence (looked up) 2: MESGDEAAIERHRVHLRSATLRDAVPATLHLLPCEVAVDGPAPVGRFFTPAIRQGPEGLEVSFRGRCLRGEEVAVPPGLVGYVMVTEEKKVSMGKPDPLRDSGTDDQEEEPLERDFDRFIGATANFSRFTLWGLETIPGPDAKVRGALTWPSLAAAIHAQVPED
Test: fluorescence polarisation

B1: fluorescein-labeled peptide RNASEH2A:283–299 (peptide)
peptide: fluorescein-GSSHRYFLERGLESATSL
B1 showed a Kd of 123 ± 10 nM.
